Blank lines part the entries; values can stand above or below the binder they belong to. Where no end group is shown, it is not given here.
What was measured:
[1] = molecular target: T1, Human TROP2 ECD (31-274 AA), biotinylated (human, UniProt P09758 31-274, biotinylated (site not stated)); assay: ELISA on immobilized TROP2; binder pre-treated with MTSP1
T1 construct: also called tumor-associated calcium signal transducer 2; Human TROP2-biotin
T1 sequence: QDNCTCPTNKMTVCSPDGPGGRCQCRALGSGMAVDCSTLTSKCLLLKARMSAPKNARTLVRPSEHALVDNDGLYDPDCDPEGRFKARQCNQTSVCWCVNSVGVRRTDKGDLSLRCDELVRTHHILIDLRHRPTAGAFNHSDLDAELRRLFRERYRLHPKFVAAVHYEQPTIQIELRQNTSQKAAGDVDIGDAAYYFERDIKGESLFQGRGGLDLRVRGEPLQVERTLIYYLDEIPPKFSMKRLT

[2] = molecular target: T2, Human TROP2 ECD (31-274 AA), biotinylated (human, UniProt P09758 31-274, biotinylated (site not stated)); assay: ELISA, captured biotin-TROP2
T2 construct: also called TROP2-biotin; Trop2-biotin
T2 sequence: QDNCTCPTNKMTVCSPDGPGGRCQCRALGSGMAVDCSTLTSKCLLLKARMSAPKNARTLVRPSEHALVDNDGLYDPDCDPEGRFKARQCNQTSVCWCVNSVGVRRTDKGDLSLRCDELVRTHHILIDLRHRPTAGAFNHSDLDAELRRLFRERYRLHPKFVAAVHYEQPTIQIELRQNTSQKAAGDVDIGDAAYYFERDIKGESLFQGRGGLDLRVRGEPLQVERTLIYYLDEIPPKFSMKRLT

Peptide-70 = molecular target: T3, Peptide-70 (cysteine pairing not given here; also: biotinylated, site not given here); assay: ELISA, TCE on captured biotin-peptide
T3 construct: mask peptide for the CD3 scFv
T3 peptide: YLCGPDGDETLACY

Peptide-73 = molecular target: T4, Peptide-73 (cysteine pairing not given here; also: biotinylated, site not given here); assay: ELISA, TCE on captured biotin-peptide
T4 construct: mask peptide for the CD3 scFv
T4 peptide: VYCGPEFDESVGCA

Peptide-76 = molecular target: T5, Peptide-76 (cysteine pairing not given here; also: biotinylated, site not given here); assay: ELISA, TCE on captured biotin-peptide
T5 construct: mask peptide for the CD3 scFv
T5 peptide: YLCGPDADETLACY

Peptide-77 = molecular target: T6, Peptide-77 (cysteine pairing not given here; also: biotinylated, site not given here); assay: ELISA, TCE on captured biotin-peptide
T6 construct: mask peptide for the CD3 scFv
T6 peptide: YLCGPDTDETLACY

[3] = molecular target: T1, Human TROP2 ECD (31-274 AA), …; assay: ELISA on immobilized TROP2
[4] = molecular target: T7, CD3 (biotinylated CD3 antigen) (human, UniProt P07766 23-126, limits assumed, biotinylated (site not stated)); assay: ELISA, captured biotin-CD3
T7 construct: also called CD3ε; human CD3
T7 sequence (P07766 23-126 limits assumed): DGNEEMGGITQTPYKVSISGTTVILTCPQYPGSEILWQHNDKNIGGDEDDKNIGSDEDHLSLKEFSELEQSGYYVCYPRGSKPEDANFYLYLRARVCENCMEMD

[5] = molecular target: T2, Human TROP2 ECD (31-274 AA), …; assay: ELISA, captured biotin-TROP2; remark: listed apart in the source

EC50 [1]: 0.48 nM
B1: PC-1 + MTSP1 (bispecific antibody)
light: DIQLTQSPSSLSASVGDRVSITCKASQDVSIAVAWYQQKPGKAPKLLIYSASYRYTGVPDRFSGSGSGTDFTLTISSLQPEDFAVYYCQQHYITPLTFGAGTKVEIKRTVAAPSVFIFPPSDEQLKSGTASVVCLLNNFYPREAKVQWKVDNALQSGNSQESVTEQDSKDSTYSLSSTLTLSKADYEKHKVYACEVTHQGLSSPVTKSFNRGEC
chain: not shown
modifications: Protease-treated product: both masks and the anti-albumin domain are cut off in the cleavable linkers.
notes: not shown: The few linker residues left at the N-terminus of each chain after the MTSP1 cut

EC50 [2]: 5.92 nM | EC50 (Peptide-70): 0.33 nM | EC50 (Peptide-73): 0.41 nM | EC50 (Peptide-76): 1.39 nM | EC50 (Peptide-77): 18.8 nM
B2: TCE-39 (anti-CD3 scFv P41S, A49G, N87S, L150F, T151S, G163R, P175A, K181T, T200V, A202D, L208I, G211N, L217I, S218T, V220A, P222A, E223D, A226S, E227D; … (bispecific antibody)
light: DIQLTQSPSSLSASVGDRVSITCKASQDVSIAVAWYQQKPGKAPKLLIYSASYRYTGVPDRFSGSGSGTDFTLTISSLQPEDFAVYYCQQHYITPLTFGAGTKVEIKRTVAAPSVFIFPPSDEQLKSGTASVVCLLNNFYPREAKVQWKVDNALQSGNSQESVTEQDSKDSTYSLSSTLTLSKADYEKHKVYACEVTHQGLSSPVTKSFNRGEC
heavy: EVQLVESGGGLVQPGGSLKLSCAASGFTFNKYAMNWVRQASGKGLEWVGRIRSKYNNYATYYADSVKDRFTISRDDSKNTAYLQMNSLKTEDTAVYYCVRHGNFGNSYISYWAYWGQGTLVTVSSGGGGSGGGGSGGGGSQTVVTQEPSFSVSPGGTVTLTCRSSTGAVTSGNYANWVQQTPGQAPRGLIGGTKFLAPGVPDRFSGSILGNKAALTITGAQADDESDYYCVLWYSNRWVFGGGTKLTVLGGGGSQVQLQQSGSELKKPGASVKVSCKASGYTFTNYGMNWVKQAPGQGLKWMGWINTYTGEPTYTDDFKGRFAFSLDTSVSTAYLQISSLKADDTAVYFCARGGFGSSYWYADVWGQGSLVTVSSASTKGPSVFPLAPSSKSTSGGTAALGCLVKDYFPEPVTVSWNSGALTSGVHTFPAVLQSSGLYSLSSVVTVPSSSLGTQTYICNVNHKPSNTKVDKKVEPKSC
notes: scFv on the Fab heavy chain

EC50 [3]: 49.4 nM
B3: PC-1 (bispecific antibody)
light: GGVDFCKIYSWPVCHQGGGGSGGLSGRSDAGSPLGLAGSGGSDIQLTQSPSSLSASVGDRVSITCKASQDVSIAVAWYQQKPGKAPKLLIYSASYRYTGVPDRFSGSGSGTDFTLTISSLQPEDFAVYYCQQHYITPLTFGAGTKVEIKRTVAAPSVFIFPPSDEQLKSGTASVVCLLNNFYPREAKVQWKVDNALQSGNSQESVTEQDSKDSTYSLSSTLTLSKADYEKHKVYACEVTHQGLSSPVTKSFNRGEC
heavy: not shown
notes: anti-TROP2 wt

EC50 [4]: 1080 nM | EC50 [5]: 694 nM
B4: PC-31 (anti-TROP2 D109A; anti-CD3 F104A), masked polypeptide complex (bispecific antibody)
light: GGVDFCGLYHWPICYQGGGGSGGLSGRSDAGSPLGLAGSGGSDIQLTQSPSSLSASVGDRVSITCKASQDVSIAVAWYQQKPGKAPKLLIYSASYRYTGVPDRFSGSGSGTDFTLTISSLQPEDFAVYYCQQHYITPLTFGAGTKVEIKRTVAAPSVFIFPPSDEQLKSGTASVVCLLNNFYPREAKVQWKVDNALQSGNSQESVTEQDSKDSTYSLSSTLTLSKADYEKHKVYACEVTHQGLSSPVTKSFNRGEC
heavy: not shown
notes: LC: TROP2 mask peptide + cleavable linker + anti-TROP2 LC; HC: anti-albumin single domain + CD3 mask peptide + cleavable linker + anti-CD3 scFv + anti-TROP2 Fab HC

From patent publication US20230357429A1 (JANUX THERAPEUTICS, published 2023)
